# In PMC7954794, “Protein context shapes the specificity of SH3 domain-mediated interactions in vivo” (Nature Communications, 2021):
# B1: S. cerevisiae Abp1 (full length; SH3 domain 535-592 mutated) / Hua2 (parent)
# chain 1: MALEPIDYTTHSREIDAEYLKIVRGSDPDTTWLIISPNAKKEYEPESTGSSFHDFLQLFDETKVQYGLARVSPPGSDVEKIIIIGWCPDSAPLKTRASFAANFAAVANNLFKGYHVQVTARDEDDLDENELLMKISNAAGARYSIQTSSKQQGKASTPPVKKSFTPSKSPAPVSKKEPVKTPSPAPAAKISSRVNDNNDDDDWNEPELKERDFDQAPLKPNQSSYKPIGKIDLQKVIAEEKAKEDPRLVQKPTAAGSKIDPSSDIANLKNESKLKRDSEFNSFLGTTKPPSMTESSLKNDDDKVIKGFRNEKSPAQLWAERKAKQNSGNAETKAEAPKPEVPEDEPEGEPDVKDLKSKFEGLAASEKEEEEMENKFAPPPKKSEPTIISPKPFSKPQEPVKAEEAEQPKTDYKKIGNPLPGMHIEADNEEEPEENDDDWDDDEDEAAQPPLPSRNVASGAPVQKEEPEQEEIAPSLPSRNSIPAPKQEEAPEQAPEEEIEEEAEEAAPQLPSRSSAAPPPPPRRATPEKKPKENPWATAEYDYDAAEDNELTFVENDKIINIEFVDDDWWLGELEKDGSKGLFPSNYVSLGN
# chain 2: MQQTKFGKMYLDHDSVVEYSEDEIVEADRITLGYKKRLSMIENQMRHLLEDFSLDVQQIEPILADLQKYYDAFLQLLQKRNKSLQCKRSTHQPVPSPMNSQTSTNAKVNLSGKLMKFQLNSVQKFDEENILRILQNKIEFEHYFQIDKGKKQKVLLLAVYQCLNGPTRLHKVLNIEGIIHNNSIRTILGKQVSSSKWTVFLYDVKLVLLAHRQDVPNLETSKMIVRYGDLFPCALYFKDHTAY
# Variants of: B1
# Assay: DHFR protein-fragment complementation in yeast (Abp1-DHFR F[1,2] x partner-DHFR F[3]), deep mutational scanning, second methotrexate selection vs reference
# Details: with Hua2; S. cerevisiae, DHFR-PCA selection in liquid with methotrexate at 30 C, two 72 h selections (the score uses the second); reference = the pre-selection culture; not an affinity; value at the no-binding floor (a bound); scale: DMS score: mean over two replicates of log2(f_test/f_ref + 0.5)/ln 2, minus the synonymous-codon median
row,Variant,screen value
1,chain 1 G572M,< -3.06
2,chain 1 G572P,< -3.06
3,chain 1 G572Q,< -3.06
4,chain 1 G572S,< -3.06
5,chain 1 G572T,-3.04
6,chain 1 G572Y,< -3.06
7,chain 1 G578I,< -3.06
8,chain 1 G578P,< -3.06
9,chain 1 G578W,-3.01
10,chain 1 G581E,-3.02
11,chain 1 G581F,-3.01
12,chain 1 G581H,< -3.06
13,chain 1 G581I,< -3.06
14,chain 1 G581K,-3.01
15,chain 1 G581L,< -3.06
16,chain 1 G581M,< -3.06
17,chain 1 G581N,< -3.06
18,chain 1 G581P,< -3.06
19,chain 1 G581Q,< -3.06
20,chain 1 G581T,< -3.06
21,chain 1 G581W,< -3.06
22,chain 1 G581Y,< -3.06
23,chain 1 I559A,< -3.06
24,chain 1 I559C,-3.01
25,chain 1 I559D,-3.04
26,chain 1 I559E,-3

row,Variant,screen value
1,chain 1 I559G,-3.05
2,chain 1 I559H,< -3.06
3,chain 1 I559K,< -3.06
4,chain 1 I559P,< -3.06
5,chain 1 I559Q,< -3.06
6,chain 1 I559R,-3.03
7,chain 1 I559W,< -3.06
8,chain 1 I560P,< -3.06
9,chain 1 I562A,< -3.06
10,chain 1 I562D,< -3.06
11,chain 1 I562E,< -3.06
12,chain 1 I562G,-3.04
13,chain 1 I562H,< -3.06
14,chain 1 I562K,-3.03
15,chain 1 I562P,< -3.06
16,chain 1 I562Q,< -3.06
17,chain 1 I562R,< -3.06
18,chain 1 I562Y,-3.03
19,chain 1 K580P,-2.98
20,chain 1 L551A,-3.04
21,chain 1 L551D,< -3.06
22,chain 1 L551G,< -3.06
23,chain 1 L551H,-2.98
24,chain 1 L551K,< -3.06
25,chain 1 L551S,< -3.06
26,chain 1 L551W,< -3.06

row,Variant,screen value
1,chain 1 L551Y,< -3.06
2,chain 1 L574D,< -3.06
3,chain 1 L574E,< -3.06
4,chain 1 L574F,-3.03
5,chain 1 L574W,-3.03
6,chain 1 L582A,-3.04
7,chain 1 L582D,-2.99
8,chain 1 L582E,-3.03
9,chain 1 L582G,-3
10,chain 1 L582T,-3.01
11,chain 1 L590D,< -3.06
12,chain 1 L590G,-3.05
13,chain 1 L590N,< -3.06
14,chain 1 N561F,< -3.06
15,chain 1 N561L,-3.02
16,chain 1 N561P,< -3.06
17,chain 1 N561V,-3.02
18,chain 1 N561W,< -3.06
19,chain 1 P584C,-3.02
20,chain 1 P584D,< -3.06
21,chain 1 P584E,< -3.06
22,chain 1 P584F,-3
23,chain 1 P584G,< -3.06
24,chain 1 P584I,< -3.06
25,chain 1 P584K,< -3.06
26,chain 1 P584M,< -3.06

row,Variant,screen value
1,chain 1 P584Q,-3.01
2,chain 1 P584V,< -3.06
3,chain 1 P584W,-3.02
4,chain 1 S585D,-3.03
5,chain 1 S585F,-2.99
6,chain 1 S585L,-2.99
7,chain 1 S585W,-3.01
8,chain 1 S585Y,< -3.06
9,chain 1 T552L,-3.04
10,chain 1 T552W,< -3.06
11,chain 1 V554P,-3.04
12,chain 1 V588H,< -3.06
13,chain 1 V588K,-3.04
14,chain 1 V588N,< -3.06
15,chain 1 V588P,< -3.06
16,chain 1 V588Q,-3.02
17,chain 1 V588R,< -3.06
18,chain 1 V588S,< -3.06
19,chain 1 V588Y,< -3.06
20,chain 1 W569A,< -3.06
21,chain 1 W569D,-3.03
22,chain 1 W569H,-3.05
23,chain 1 W569I,-2.99
24,chain 1 W569N,< -3.06
25,chain 1 W569P,< -3.06
26,chain 1 W569S,-2.99

row,Variant,screen value
1,chain 1 W569T,< -3.06
2,chain 1 W570A,< -3.06
3,chain 1 W570D,< -3.06
4,chain 1 W570E,-3.03
5,chain 1 W570H,< -3.06
6,chain 1 W570I,< -3.06
7,chain 1 W570K,< -3.06
8,chain 1 W570M,-3.02
9,chain 1 W570P,< -3.06
10,chain 1 W570Q,-3.01
11,chain 1 W570T,< -3.06
12,chain 1 W570V,-3.02
13,chain 1 Y541P,< -3.06
14,chain 1 Y543A,< -3.06
15,chain 1 Y543E,< -3.06
16,chain 1 Y543G,-3.04
17,chain 1 Y543I,< -3.06
18,chain 1 Y543L,-3.02
19,chain 1 Y543M,< -3.06
20,chain 1 Y543P,< -3.06
21,chain 1 Y543R,-3.05
22,chain 1 Y543T,-3.01
23,chain 1 Y543V,< -3.06
24,chain 1 Y587E,-2.98
25,chain 1 Y587G,-3
26,chain 1 Y587P,< -3.06

# Same assay, conditions: with Hua2; S. cerevisiae, DHFR-PCA selection in liquid with methotrexate at 30 C, two 72 h selections (the score uses the second); reference = the pre-selection culture; value at the no-binding floor (a bound); scale: DMS score: mean over two replicates of log2(f_test/f_ref + 0.5)/ln 2, minus the synonymous-codon median
row,Variant,screen value
1,chain 1 D566C,< -3.06
2,chain 1 D566F,-2.99
3,chain 1 D566R,-3.03
4,chain 1 D566S,< -3.06
5,chain 1 D567C,< -3.06
6,chain 1 D567I,< -3.06
7,chain 1 D567K,-3.03
8,chain 1 D567P,< -3.06
9,chain 1 D567R,< -3.06
10,chain 1 D567S,-3.02
11,chain 1 D567T,-3
12,chain 1 D568I,< -3.06
13,chain 1 D568K,< -3.06
14,chain 1 D568L,< -3.06
15,chain 1 D568M,< -3.06
16,chain 1 D568Q,-3.01
17,chain 1 D568R,< -3.06
18,chain 1 E547R,-3.04
19,chain 1 N586R,-2.99
20,chain 1 S585Q,< -3.06
21,chain 1 W569K,-3.02
22,chain 1 W569M,-2.99
23,chain 1 Y541R,-3.01
